Test results as given in patent publication US20120039878A1.

How the values were obtained:
[1] = target: murine monoclonal antibody 7D8 (ATCC Accession Number PTA-9468); experiment: Competition ELISA; human AA amyloid in solution competing with adsorbed mouse AA (AEF) for mAb 7D8
[2] = target: murine monoclonal antibody 2A4 (ATCC Accession Number PTA-9662); experiment: Competition ELISA; human AA amyloid in solution competing with adsorbed mouse AA (AEF) for mAb 2A4
[3] = target: the 3 mAbs (2A4, 8G9 and 7D8) as a group; experiment: Competition ELISA; told for the three mAbs together
[4] = target: murine monoclonal antibody 8G9; experiment: Competition ELISA; human AA amyloid in solution competing with adsorbed mouse AA (AEF) for mAb 8G9
murine monoclonal antibody 8G9, sequence (VL, as listed by the source, chain 1 of 2): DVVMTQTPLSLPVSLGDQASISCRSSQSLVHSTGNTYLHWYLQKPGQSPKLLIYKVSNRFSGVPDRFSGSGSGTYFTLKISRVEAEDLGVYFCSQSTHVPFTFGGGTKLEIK
murine monoclonal antibody 8G9, sequence (VH, as listed by the source, chain 2 of 2): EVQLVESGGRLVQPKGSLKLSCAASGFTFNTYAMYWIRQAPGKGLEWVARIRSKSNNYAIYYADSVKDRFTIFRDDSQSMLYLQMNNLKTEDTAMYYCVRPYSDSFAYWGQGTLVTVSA

murine monoclonal antibody 2A4 (ATCC Accession Number PTA-9662), sequence (VH, as listed by the source, chain 2 of 2): as above
murine monoclonal antibody 7D8 (ATCC Accession Number PTA-9468), sequence (VL, as listed by the source, chain 1 of 2): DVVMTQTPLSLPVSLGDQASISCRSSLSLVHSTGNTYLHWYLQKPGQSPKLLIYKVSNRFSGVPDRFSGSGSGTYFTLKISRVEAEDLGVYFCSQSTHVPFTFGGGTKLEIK
murine monoclonal antibody 7D8 (ATCC Accession Number PTA-9468), sequence (VH, as listed by the source, chain 2 of 2): as the sequence (VH, as listed by the source, chain 2 of 2) above

B1: human AA amyloid (human renal AA amyloid extract; AA deposits in human tissue) (protein, UniProt P0DJI8 19-94, looked up)
Amyloid protein A: RSFFSFLGEAFDGARDMWRAYSDMREANYIGSDKYFHARGNYDAAKRGPGGAWAAEVITDARENIQRFFGHGAEDS
modifications: Amyloid protein A amyloid fibrils
Q: Which results are given for B1?
A: IC50 [1]: > 881 µg/mL; IC50 [2]: > 212 µg/mL; fold of IC50 against murine AEF in solution [3]: 6 to 44 fold; IC50 [4]: > 120 µg/mL
